According to US20220259289A1 (Janssen / Centocor, published 2022):
Numbering of substitutions follows the chain as printed.

B1: ISOP120GR5P1F5 (designed binder, not shown: small tags and cut ends)
chain: LPAPKNLVVSRVTEDSARLSWTAPDAAFDSFEIDYWEVESEGEAIVLFVPGSERSYDLTGLKPGTEYHVHIVGVKGGTPSYPLWADFTT
notes: FN3 domain (Centyrin); tested as E. coli lysate
B2: ISOP120GR5P1E7 (designed binder, not shown: small tags and cut ends)
chain: B1 chain with V46I
notes: as for B1
B3: ISOP120GR5P1H6 (designed binder, not shown: small tags and cut ends)
chain: LPAPKNLVVSRVTEDSARLSWTNEQITKYGFDSFLIQYQESEKVGEAIVLTVPGSERSYDLTGLKPGTEYTVSIYGVGRHYTVYDSNPLSAIFTT
notes: as for B1
B4: ISOP120AR5P1F11 (designed binder, not shown: small tags and cut ends)
chain: B3 chain with G67A
notes: as for B1
B5: ISOP120AR5P1G7 (designed binder, not shown: small tags and cut ends)
chain: B3 chain with T22S, N23Q, E24H, Q25Y, I26L, T27S, K28P, Y29I, G30P
notes: as for B1
B6: ISOP120AR5P1H3 (designed binder, not shown: small tags and cut ends)
chain: B3 chain with T22K, N23W, E24I, Q25S, I26H, T27E, K28P, Y29L, G30E
notes: as for B1
B7: ISOP120AR5P1D2 (designed binder, not shown: small tags and cut ends)
chain: LPAPKNLVVSRVTEDSARLSWDFAYFKFDSFLIQYQESEKVGEAIVLTVPGSERSYDLTGLKPGTEYTVSIYGVGRFYTVYYSNPLSAIFTT
notes: as for B1
B8: ISOP120AR5P1C4 (designed binder, not shown: small tags and cut ends)
chain: B7 chain with D22A, A24Q, Y25W, F26H, K27I, R76Q, F77P, Y82D
notes: as for B1
B9: ISOP120AR5P1C5 (designed binder, not shown: small tags and cut ends)
chain: B7 chain with D22T, F23L, A24P, Y25N, F26I, K27H, F77H, Y82D
notes: as for B1
B10: ISOP193ER9P1G4 (designed binder, not shown: small tags and cut ends)
chain: LPAPKNLVVSRVTEDSARLSWTAPDAAFDSFDIYYFEHPVGGEAIVLTVPGSERSYDLTGLKPGTEYLVTIYGVKGGNFSFPLSAIFTT
B11: ISOP193FR9P1A11 (designed binder, not shown: small tags and cut ends)
chain: B10 chain with D32A, Y34Q, F36W, H38G, P39W, V40E, G41W, N78H, F79W, F81R
B12: ISOP193FR9P1G2 (designed binder, not shown: small tags and cut ends)
chain: B10 chain with D32T, H38N, P39E, V40N, G64D, N78H, F79W, F81R
B13: ISOP193FR9P1G10 (designed binder, not shown: small tags and cut ends)
chain: B10 chain with D32T, H38N, P39E, V40N, N78H, F79W, F81R
B14: ISOP193HR9P1A10 (designed binder, not shown: small tags and cut ends)
chain: B10 chain with F36L, H38P, P39W, V40G, L68W, G76V, G77C, N78L, F79G, F81N
B15: ISOP193HR9P1E3 (designed binder, not shown: small tags and cut ends)
chain: B10 chain with D32E, H38L, P39R, V40L, N78A, F79Y, F81N
B16: ISOP193HR9P1E8 (designed binder, not shown: small tags and cut ends)
chain: B10 chain with F36Y, H38L, P39R, V40L, N78D, F79Y, F81P
B17: ISOP193HR9P1F8 (designed binder, not shown: small tags and cut ends)
chain: B10 chain with F36Y, H38L, P39R, V40L, G76V, G77C, N78Y, F79Y, F81T
B18: ISOP193HR9P1F10 (designed binder, not shown: small tags and cut ends)
chain: B10 chain with F36Y, H38L, P39R, V40L, N78Y, F79Y, F81G
B19: ISOP193HR9P1G4 (designed binder, not shown: small tags and cut ends)
chain: B10 chain with D32E, H38L, P39R, V40L, N78D, F79Y, F81P
B20: ISOP193HR9P1G5 (designed binder, not shown: small tags and cut ends)
chain: B10 chain with F36Y, H38L, P39R, V40L, G77C, N78A, F79A, F81D
B21: ISOP193HR9P1G6 (designed binder, not shown: small tags and cut ends)
chain: B10 chain with F36Y, H38L, P39R, V40L, G76V, G77C, N78E, F79Q, F81Y, F87S
B22: ISOP193HR9P1G10 (designed binder, not shown: small tags and cut ends)
chain: B10 chain with D32E, H38L, P39R, V40L, N78D, F79Y, F81P, F87S
B23: ISOP193HR9P1H7 (designed binder, not shown: small tags and cut ends)
chain: LPAPKNLVVSRVTEDSARLSWTAPDAAFDSFEIYYREPHYGGEAIVLTVPGSERSYDLTGLKPGTEYWVTIYGVKVCLGSNPLSAIFTT
B24: ISOP193HR9P1H10 (designed binder, not shown: small tags and cut ends)
chain: B23 chain with E32D, R36Y, P38L, H39R, Y40L, W68L
B25: ISOP193ER9P1F11 (designed binder, not shown: small tags and cut ends)
chain: LPAPKNLVVSRVTEDSARLSWTAPDAAFDSFAIQYQEYVAHGEAIVLTVPGSERSYDLTGLKPGTEYHVRISGVKGGGVSWPLSAISTT
B26: ISOP193FR9P1E1 (designed binder, not shown: small tags and cut ends)
chain: LPAPKNLVVSRVTEDSARLSWTAPDAAFDSFIIRYLEDISYGEAIVLTVPGSERSYDLTGLKPGTEYHVGIEGVKGGNVSWPLSAIFTT
B27: ISOP193ER9P1H3 (designed binder, not shown: small tags and cut ends)
chain: B26 chain with I32E, R34Y, D38V, I39R, S40N, Y41R, E72A, N78F, V79H, W81F
B28: ISOP193FR9P1D1 (designed binder, not shown: small tags and cut ends)
chain: LPAPKNLVVSRVTEDSARLSWTAPDAAFDSFFIQYLEDVTNGEAIVLTVPGSERSYDLTGLKPGTEYRVPIAGVKGGRDSQPLSAIFTT
B29: ISOP193GR9P1G9 (designed binder, not shown: small tags and cut ends)
chain: LPAPKNLVVSRVTEDSARLSWTAPDAAFDSFAIFYHEFANSGEAIDLPVPGSERSYDLTGLKPGTEYDVRIYGVKGGTASIPLDAEFTT
B30: ISOP193GR9P1B3 (designed binder, not shown: small tags and cut ends)
chain: LPAPKNLVVSRVTEDSARLSWTAPDAAFDSFAIGYVEWTANGEAIVLIVPGSERSYDLTGLKPGTEYVVRIRGGVKGGDSSFPLRADFTT
B31: ISOP193GR9P1E10 (designed binder, not shown: small tags and cut ends)
chain: LPAPKNLVVSRVTEDSARLSWTAPDAAFDSFAISYTESIRQGEAIWLWVPGSERSYDLTGLKPGTEYEVTIGGVKGGIRSYPLWAWFTT
B32: ISOP193GR9P1F6 (designed binder, not shown: small tags and cut ends)
chain: B1 chain
B33: ISOP193GR9P1F7 (designed binder, not shown: small tags and cut ends)
chain: LPAPKNLVVSRVTEDSARLSWTAPDAAFDSFDIPYVEYYPSGEAIVLNVPGSERSYDLTGLKPGTEYGVTIWGIKGGNESVPLTARFTT
B34: ISOP193GR9P1H2 (designed binder, not shown: small tags and cut ends)
chain: LPAPKNLVVSRVTEDSARLSWTAPDAAFDSFEIPYIEVETIGEAIWLHVPGSERSYDLTGLKPGTEYSVGINGVKGGHTSNPLSARFTT

Target: unrelated Fc-fused recombinant protein (negative control)
Assay: ELISA, bacterial lysate on plate-bound antigen, luminescence

| Binder | ELISA Fc Control (RLU) |
| --- | --- |
| B1 | 400 |
| B2 | 400 |
| B3 | 400 |
| B4 | 480 |
| B5 | 560 |
| B6 | 400 |
| B7 | 640 |
| B8 | 320 |
| B9 | 320 |

Target: T1, human serum albumin (human, UniProt P02768 25-609)
T1 construct: Negative control of the ELISA; also called HSA
Assay: ELISA, negative control HSA
Procedure: (§1) Streptavidin-coated Maxisorp plates (Nunc catalog 436110) were blocked for 1 h in Starting Block T20 (Pierce) and then coated with biotinylated CD137 (using same antigen as in panning) or negative controls (an unrelated Fc-fused recombinant protein and human serum albumin) for 1 h. Plates were rinsed with TBST and diluted lysate was applied to plates for 1 h. Following additional rinses, wells were treated with HRP-conjugated anti-Centyrin antibody (PAB25) for 1 h and then assayed with POD (Roche catalog 11582950001).
T1 sequence (P02768 25-609 limits assumed): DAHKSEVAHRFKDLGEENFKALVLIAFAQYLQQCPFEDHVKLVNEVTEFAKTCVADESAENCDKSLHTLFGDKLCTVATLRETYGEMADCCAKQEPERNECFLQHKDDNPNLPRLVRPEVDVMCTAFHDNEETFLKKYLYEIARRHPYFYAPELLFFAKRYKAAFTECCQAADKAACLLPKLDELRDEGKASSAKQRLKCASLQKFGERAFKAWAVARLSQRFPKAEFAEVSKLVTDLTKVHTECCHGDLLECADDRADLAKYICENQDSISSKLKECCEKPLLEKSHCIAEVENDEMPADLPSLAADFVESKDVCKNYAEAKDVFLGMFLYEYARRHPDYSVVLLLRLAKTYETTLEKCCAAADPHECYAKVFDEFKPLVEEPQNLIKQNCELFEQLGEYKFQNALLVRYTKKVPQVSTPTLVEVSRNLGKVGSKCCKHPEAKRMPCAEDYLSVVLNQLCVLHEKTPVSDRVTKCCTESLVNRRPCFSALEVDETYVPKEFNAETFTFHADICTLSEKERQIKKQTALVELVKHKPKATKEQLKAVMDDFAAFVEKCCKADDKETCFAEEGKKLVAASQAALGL

| Binder | ELISA HSA (RLU) |
| --- | --- |
| B10 | 320 |
| B11 | 880 |
| B12 | 880 |
| B13 | 880 |
| B14 | 1520 |
| B15 | 640 |
| B16 | 1520 |
| B17 | 6080 |
| B18 | 960 |
| B19 | 560 |
| B20 | 3360 |
| B21 | 1200 |
| B22 | 800 |
| B23 | 13700 |
| B24 | 10100 |
| B25 | 400 |
| B26 | 880 |
| B27 | 400 |
| B28 | 640 |
| B29 | 480 |
| B30 | 320 |
| B31 | 480 |
| B32 | 400 |
| B33 | 400 |
| B34 | 640 |

Target: unrelated Fc-fused recombinant protein
Assay: ELISA, negative control Fc protein

| Binder | ELISA Fc Control (RLU) |
| --- | --- |
| B10 | 1440 |
| B11 | 3520 |
| B12 | 2560 |
| B13 | 2480 |
| B14 | 5680 |
| B15 | 1120 |
| B16 | 3120 |
| B17 | 31300 |
| B18 | 1280 |
| B19 | 960 |
| B20 | 24200 |
| B21 | 8160 |
| B22 | 1360 |
| B23 | 49800 |
| B24 | 43900 |
| B25 | 2240 |
| B26 | 2000 |
| B27 | 1520 |
| B28 | 1680 |
| B29 | 960 |
| B30 | 880 |
| B31 | 1360 |
| B32 | 1360 |
| B33 | 880 |
| B34 | 1360 |

Target: T2, recombinant biotinylated human CD137 protein (Fc-fusion protein, R&D Systems 838-4B) (human, UniProt Q07011 24-186, biotinylated (site not stated))
T2 construct: Bought Fc fusion; The ELISA used the same antigen as the panning; also called CD137-Fc; biotinylated CD137; not shown: Fc part of the bought fusion protein
Assay: ELISA, bacterial lysate on plate-bound antigen, luminescence
Procedure: as §1

| Binder | ELISA CD137-Fc (RLU) |
| --- | --- |
| B1 | 1.28e+06 |
| B2 | 1.13e+06 |
| B3 | 721000 |
| B4 | 715000 |
| B5 | 568000 |
| B6 | 769000 |
| B7 | 908000 |
| B8 | 708000 |
| B9 | 425000 |

Target: T3, human serum albumin (human, UniProt P02768 25-609)
T3 construct: Negative control antigen of the screening ELISA; also called HSA
Assay: as above
Procedure: as §1
T3 sequence (P02768 25-609 limits assumed): as above

| Binder | ELISA HSA (RLU) |
| --- | --- |
| B1 | 400 |
| B2 | 480 |
| B3 | 400 |
| B4 | 320 |
| B5 | 480 |
| B6 | 480 |
| B7 | 640 |
| B8 | 240 |
| B9 | 160 |

Target: T4, recombinant biotinylated CD137 protein (Fc-fusion protein, R&D Systems 838-4B) (human, UniProt Q07011 24-186, biotinylated, sites not stated)
T4 construct: Bought Fc fusion; also called CD137-Fc
Assay: ELISA, lysate on biotinylated CD137-Fc
Procedure: as §1

| Binder | ELISA CD137 (RLU) |
| --- | --- |
| B10 | 1.38e+07 |
| B11 | 5.78e+06 |
| B12 | 7.86e+06 |
| B13 | 8.91e+06 |
| B14 | 1.27e+07 |
| B15 | 1.78e+07 |
| B16 | 1.63e+07 |
| B17 | 1.61e+07 |
| B18 | 1.58e+07 |
| B19 | 1.72e+07 |
| B20 | 1.51e+07 |
| B21 | 1.15e+07 |
| B22 | 1.56e+07 |
| B23 | 4.6e+06 |
| B24 | 1.48e+07 |
| B25 | 1.12e+07 |
| B26 | 1.16e+07 |
| B27 | 1.05e+07 |
| B28 | 8.13e+06 |
| B29 | 3.05e+06 |
| B30 | 3.46e+06 |
| B31 | 1.05e+07 |
| B32 | 9.85e+06 |
| B33 | 3.48e+06 |
| B34 | 5.31e+06 |
